Target: p53 (human, wild type) (human (endogenous in HCT 116, MCF7, U2OS)), P04637
Assay: co-IP; HCT 116 colon cancer cells, untreated or treated with RITA; co-immunoprecipitation of p53/MDM2 or p53/MDM4 as described previously (Issaeva et al., 2004)
Conditions: remark: other sources report otherwise

p53 (human, wild type) (human (endogenous in HCT 116, MCF7, U2OS)), P04637, sequence (P04637 whole entry): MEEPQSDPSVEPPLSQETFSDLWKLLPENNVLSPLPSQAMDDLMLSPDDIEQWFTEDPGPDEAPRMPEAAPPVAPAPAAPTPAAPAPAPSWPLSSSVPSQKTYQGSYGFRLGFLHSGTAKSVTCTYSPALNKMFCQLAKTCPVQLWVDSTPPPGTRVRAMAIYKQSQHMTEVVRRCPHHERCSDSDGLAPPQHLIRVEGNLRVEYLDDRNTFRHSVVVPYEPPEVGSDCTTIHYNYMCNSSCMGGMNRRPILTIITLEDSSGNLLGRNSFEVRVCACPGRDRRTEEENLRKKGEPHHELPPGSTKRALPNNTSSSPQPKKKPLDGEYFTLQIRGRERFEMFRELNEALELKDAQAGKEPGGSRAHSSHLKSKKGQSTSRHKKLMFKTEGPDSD

percent reduction of the amount of MDMX bound to p53 by RITA: 43%
B1: MDM4 (MDMX), human, O15151 1-490 (natural protein)
chain: MTSFSTSAQCSTSDSACRISPGQINQVRPKLPLLKILHAAGAQGEMFTVKEVMHYLGQYIMVKQLYDQQEQHMVYCGGDLLGELLGRQSFSVKDPSPLYDMLRKNLVTLATATTDAAQTLALAQDHSMDIPSQDQLKQSAEESSTSRKRTTEDDIPTLPTSEHKCIHSREDEDLIENLAQDETSRLDLGFEEWDVAGLPWWFLGNLRSNYTPRSNGSTDLQTNQDVGTAIVSDTTDDLWFLNESVSEQLGVGIKVEAADTEQTSEEVGKVSDKKVIEVGKNDDLEDSKSLSDDTDVEVTSEDEWQCTECKKFNSPSKRYCFRCWALRKDWYSDCSKLTHSLSTSDITAIPEKENEGNDVPDCRRTISAPVVRPKDAYIKKENSKLFDPCNSVEFLDLAHSSESQETISSMGEQLDNLSEQRTDTENMEDCQNLLKPCSLCEKRPRDGNIIHGRTGHLVTCFHCARRLKKAGASCPICKKEIQLVIKVFIA

Source: publication PMC9198586
